This assay concerns the target Avi-tagged HSP90β (full-length human HSP90β, residues 1–724) (human) (UniProt P08238).

Chain of Avi-tagged HSP90β (full-length human HSP90β, residues 1–724) (human) (P08238 whole entry, the tested form may be a part): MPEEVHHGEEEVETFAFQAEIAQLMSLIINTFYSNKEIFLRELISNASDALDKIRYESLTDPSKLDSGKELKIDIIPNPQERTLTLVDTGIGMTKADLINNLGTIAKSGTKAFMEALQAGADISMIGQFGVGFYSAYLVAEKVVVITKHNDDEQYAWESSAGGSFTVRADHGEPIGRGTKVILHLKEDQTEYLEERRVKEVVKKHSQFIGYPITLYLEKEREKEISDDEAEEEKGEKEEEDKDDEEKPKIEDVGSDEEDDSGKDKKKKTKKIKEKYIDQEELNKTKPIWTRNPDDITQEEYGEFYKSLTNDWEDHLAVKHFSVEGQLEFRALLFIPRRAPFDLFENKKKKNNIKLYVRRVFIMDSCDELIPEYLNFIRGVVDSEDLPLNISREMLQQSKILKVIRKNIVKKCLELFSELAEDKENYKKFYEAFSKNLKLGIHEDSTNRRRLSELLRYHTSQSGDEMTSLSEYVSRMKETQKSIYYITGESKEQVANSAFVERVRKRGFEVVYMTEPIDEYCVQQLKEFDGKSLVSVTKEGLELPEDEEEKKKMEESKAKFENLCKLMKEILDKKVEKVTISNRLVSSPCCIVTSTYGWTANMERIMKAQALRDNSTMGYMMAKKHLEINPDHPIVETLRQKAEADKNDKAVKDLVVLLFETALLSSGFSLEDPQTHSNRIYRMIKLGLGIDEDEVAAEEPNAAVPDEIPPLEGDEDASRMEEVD

B1: AIPL1-K265A (natural protein)
chain: MDVSLLLNVEGVKKTILHGGTGELPSFITGSRVTFHFRTMKCDDERTVIDDSKQVGQPMSIIIGNMFKLEVWETLLTSMRLGEVAEFWCDTIHTGVYPMLSRSLRQVAEGKDPTSWHVHTCGLANMFAYHTLGYEDLDELQKEPQPLVFLIELLQVEAPNEYQRETWNLNNEERMQAVPLLHGEGNRLYKLGRYDQAATKYQEAIVCLRNLQTKEKPWEVEWLKLEKMINTLILNYCQCLLKKEEYYEVLEHTSDILRHHPGIVAAYYMRARAHAEVWNAEEAKADLEKVLELEPSMRKAVLRELRLLESRLADKQEEERQRCRSMLG
As for B1, the cGMP hydrolysis (PDE6 activity) in lysates of HEK293T cells cotransfected with PDE6C, Pγ and the AIPL1 mutant (nmol•min^−1• mg^−1) came out at 8.8.

B2: AIPL1-K265W (natural protein)
chain: MDVSLLLNVEGVKKTILHGGTGELPSFITGSRVTFHFRTMKCDDERTVIDDSKQVGQPMSIIIGNMFKLEVWETLLTSMRLGEVAEFWCDTIHTGVYPMLSRSLRQVAEGKDPTSWHVHTCGLANMFAYHTLGYEDLDELQKEPQPLVFLIELLQVEAPNEYQRETWNLNNEERMQAVPLLHGEGNRLYKLGRYDQAATKYQEAIVCLRNLQTKEKPWEVEWLKLEKMINTLILNYCQCLLKKEEYYEVLEHTSDILRHHPGIVWAYYMRARAHAEVWNAEEAKADLEKVLELEPSMRKAVLRELRLLESRLADKQEEERQRCRSMLG
B2: the cGMP hydrolysis (PDE6 activity) in lysates of HEK293T cells cotransfected with PDE6C, Pγ and the AIPL1 mutant (nmol•min^−1• mg^−1) was 3.
